Experimental data reported in patent US9260728B2, “Terpene synthases from Santalum” (UNIVERSITY OF BRITISH COLUMBIA, priority 2009, dated 2016).

Tests used:
[1] = GC-FID determination of reaction products of terpene synthases from FPP with magnesium or manganese; type: biochemical
Procedure: Enzyme assays for all recombinant proteins were done in triplicate using the GC vial method described by O'Maille et al. (Anal. Biochem. 335:[…] (2004). For enzyme assays where only product identification was needed, 10 μg of protein was used in a final volume of 500 μL of reaction buffer (25 mM HEPES, 10% glycerol, 5 mM DTT and 10 mM of either Mg^2+ or Mn^2+. Substrates (FPP and GPP) were added to a final reaction concentration of 100 μM. Vials were overlaid with 500 μL of hexane to trap volatile products and incubated at 30° C. for 2 h. Mixtures were vortexed for 1 min to extract all volatiles and the vials were centrifuged to separate the organic layer.
Product mixtures were analysed by GC-MS in scan mode for product identification. A standard containing the three santalenes and α-trans-bergamotene was prepared by flash chromatography of 2 mL of neat S. album oil over silica and eluted in hexane. A final yield of 25 mg was resuspended in EtOAc and purity was confirmed by GC-FID with conditions described below. All mass spectra were compared to the NIST 2005 library and the literature. Retention indices were determined for all compounds using an n-alkane standard and compared to the literature (R. P. Adams, “Identification of essential oil components by gas chromatography/mass spectrometry,” Allured Publishing Corporation, Carol Stream, Ill. (1995)).
GC-FID was performed on a Shimadzu GC2010 with a 30 m 0.25 mm ID, 0.25 μm film DB-WAX column with He as the carrier gas. Splitless injection (2 μL) was used for all analyses. Conditions were as follows: injector 200° C., detector 250° C., column flow rate 1 mL/min. Oven program: 40° C. for 3 min, then 8° C./min to 180° C., held 5 min, then 10° C./min to 220° C., held 10 min. Needle height was adjusted to only draw from the upper organic layer of all sample vials. GC-MS was performed on a Shimadzu GC2010 with the same DB-WAX column and using He as the carrier gas. Conditions were as follows: injector 200° C., MS interface 240° C., ion source 200° C. Oven program: 40° C. for 3 min, then 8° C./min to 180° C., held 5 min, then 10° C./min to 220° C., held 10 min. Solvent cut time was set to 5 min. For product identification, total ion monitoring was used, scanning from m/z 45 to m/z 300. For kinetic assays, single ion monitoring of the sesquiterpene base ions m/z 91, 93 and 94 were used. Likewise monoterpene base ions (m/z 69, 71 and 93) were monitored. An internal standard (isobutyl benzene, 30 μM) was added to the hexane used to overlay each reaction. Detector response factors were calculated based on the santalene standard prepared earlier and used to determine the product concentrations for kinetic analysis.

[2] = as above; type: biochemical; remark: listed apart in the source

B1: SspiSSy: santalene synthase from Santalum spicatum, gene SEQ ID NO:5, protein SEQ ID NO:6 (protein, listed as Santalum spicatum)
chain: MDSSTATATTAPFIDHTDHVNLKIDNDSSESRRMGNYKPSIWNYDFLQSLAIHHNIVEEKHLKLAEKLKGQVMSMFGAPMEPLAKLELVDVVQRLGLNHQFETEIKEALFSVYKDGSNGWWFGHLHATSLRFRLLRQCGLFIPQDVFKTFQSKTDEFDMKLCDNIKGLLSLYEASFLGWKGENILDEAKAFATKYLKNAWENISQKWLAKRVKHALALPLHWRVPRIEARWFIEAYEQEENMNPTLLKLAKLDFNMVQSIHQKEIGELARWWVTTGLDKLAFARNNLLQSYMWSCAIASDPKFKLARETIVEIGSVLTVVDDAYDVYGSMDELDHYTYSVERWSCVEIDKLPNTLKLIFMSMFNKTNEVGLRVQHERGYNGIPTFIKAWVEQCKAYQKEARWYHGGHTPPLEEYSLNGLVSIGFPLLLITGYIAIAENEAALDKVHPLPDLLHYSSLLSRLINDMGTSPDEMARGDNLKSIHCYMNETGASEEVAREHIKGIIEENWKILNQCCFDQSQFQEPFITFNLNSVRGSHFFYEFGDGFGVTDSWTKVDMKSVLIDPIPLGEE
modifications: SspiSSy Protein
[1]; FPP Mg, mean
  E-β-farnesene among reaction products (GC-FID): 2.2
  Z-β-farnesene among reaction products (GC-FID): 0.7
  epi-β-santalene among reaction products (GC-FID): 4.2
  α-E-bergamotene among reaction products (GC-FID): 19.2
  α-santalene among reaction products (GC-FID): 47.3
  β-santalene among reaction products (GC-FID): 26.3
[1]; FPP Mg, replicate 1
  E-β-farnesene among reaction products (GC-FID): 2.5
  Z-β-farnesene among reaction products (GC-FID): 0.7
  epi-β-santalene among reaction products (GC-FID): 4.6
  α-E-bergamotene among reaction products (GC-FID): 19.6
  α-santalene among reaction products (GC-FID): 46.3
  β-santalene among reaction products (GC-FID): 26.4
[1]; FPP Mg, replicate 2
  E-β-farnesene among reaction products (GC-FID): 2.2
  Z-β-farnesene among reaction products (GC-FID): 0.6
  epi-β-santalene among reaction products (GC-FID): 4.2
  α-E-bergamotene among reaction products (GC-FID): 19.2
  α-santalene among reaction products (GC-FID): 47.4
  β-santalene among reaction products (GC-FID): 26.4
[1]; FPP Mg, replicate 3
  E-β-farnesene among reaction products (GC-FID): 2.0
  Z-β-farnesene among reaction products (GC-FID): 0.8
  epi-β-santalene among reaction products (GC-FID): 4.0
  α-E-bergamotene among reaction products (GC-FID): 18.9
  α-santalene among reaction products (GC-FID): 48.1
  β-santalene among reaction products (GC-FID): 26.3
[1]; FPP Mn, mean
  E-β-farnesene among reaction products (GC-FID): 8.2
  Z-β-farnesene among reaction products (GC-FID): 1.0
  epi-β-santalene among reaction products (GC-FID): 1.3
  α-E-bergamotene among reaction products (GC-FID): 78.9
  α-santalene among reaction products (GC-FID): 7.3
  β-santalene among reaction products (GC-FID): 3.4
[1]; FPP Mn, replicate 1
  E-β-farnesene among reaction products (GC-FID): 8.1
  Z-β-farnesene among reaction products (GC-FID): 1.0
  epi-β-santalene among reaction products (GC-FID): 1.4
  α-E-bergamotene among reaction products (GC-FID): 79.0
  α-santalene among reaction products (GC-FID): 7.2
  β-santalene among reaction products (GC-FID): 3.3
[1]; FPP Mn, replicate 2
  E-β-farnesene among reaction products (GC-FID): 8.0
  Z-β-farnesene among reaction products (GC-FID): 1.0
  epi-β-santalene among reaction products (GC-FID): 1.7
  α-E-bergamotene among reaction products (GC-FID): 78.6
  α-santalene among reaction products (GC-FID): 7.4
  β-santalene among reaction products (GC-FID): 3.4
[1]; FPP Mn, replicate 3
  E-β-farnesene among reaction products (GC-FID): 8.4
  Z-β-farnesene among reaction products (GC-FID): 1.0
  epi-β-santalene among reaction products (GC-FID): 0.7
  α-E-bergamotene among reaction products (GC-FID): 79.1
  α-santalene among reaction products (GC-FID): 7.3
  β-santalene among reaction products (GC-FID): 3.5
[1]; GC-FID
  Relative % composition in oil produced by enzyme: E-α-bergamotol: 19.2%
  Relative % composition in oil produced by enzyme: β-santalol: 26.3%
[2]
  Relative % composition in oil produced by enzyme: epi-β-santalol: 4.2%
  Relative % composition in oil produced by enzyme: α-santalol: 47.3%
